Our source for the Kd values is article PMC3967975 (Molecular Biology of the Cell, 2014).

B1: His::lamin R55H (full-length Ce-lamin bearing the R55H mutation) (natural protein, C. elegans, UniProt Q21443 1-566, looked up)
chain: MSSRKGTRSSRIVTLERSANSSLSNNGGGDDSFGSTLLETSRLQEKDHLTSLNSHLATYIDKVRQLEQENNRLQVQIRDIEVVEKKEKSNLADRFEAEKARLRRALDSAQDELAKYRIEYDAAKVEVKKLKPQVEKLERELAGAEEQALHAQSIADQSQAKQKTLQARNDKLVVENDDLKKQNITLRDTVEGLKKAVEDETLLRTAANNKIKALEEDLAFALQQHKGELEEVRHKRQVDMTTYAKQINDEYQSKLQDQIEEMRAQFKNNLHQNKTAFEDAYKNKLNAARERQEEAVSEAIHLRARVRDLETSSSGNASLIERLRSELDTLKRSFQEKLDDKDARIAELNQEIERMMSEFHDLLDVKIQLDAELKTYQALLEGEEERLNLTQEAPQNTSVHHVSFSSGGASAQRGVKRRRVVDVNGEDQDIDYLNRRSKLNKETVGPVGIDEVDEEGKWVRVANNSEEEQSIGGYKLVVKAGNKEASFQFSSRMKLAPHASATVWSADAGAVHHPPEVYVMKKQQWPIGDNPSARLEDSEGDTVSSITVEFSESSDPSDPADRCSIM
B7: His::emerin 1–125 (Ce-emerin residues 1–125, nucleoplasmic domain only) (domain or fragment, C. elegans, UniProt O01971 1-125, looked up)
chain: MDVSQLTDAELRDSLKSHGVSVGPIVATTRKLYEKKLIKLSDGSINNQSNLNDSQFNEDSLIISSSPKKSPPQRVFQNVSAATAAATTSPESDSDDCEESMRYLTEEEMAADRASARQAQSNKGG

Read-outs that look alike come from different tables or passages of the source.

What all share (test): SPR
A general note: Surface plasmon resonance follows binding to a sensor surface in real time, without labels.

Series [1] deals with the molecule itself.
In series [2] the target is B1.
For series [3], the target named is B7.
Series [4] has as its target B1. This is another data set of the same source.
Series [5] deals with the molecule itself. The source holds these as a separate data set.

The Kd is the equilibrium constant for the complex coming apart. A low value points to a tighter complex. In “SPR [1]”, B1 registered a Kd of 3.7 nM.

B2: MBP::BAF-1 (wild-type C. elegans barrier to autointegration factor 1 fused to maltose-binding protein) (natural protein, UniProt Q03565 1-89, looked up)
chain: MSTSVKHREFVGEPMGDKEVTCIAGIGPTYGTKLTDAGFDKAYVLFGQYLLLKKDEDLFIEWLKETAGVTANHAKTAFNCLNEWADQFM
With B2, the Kd was 84 nM in series [2] and 57 nM in series [3].

B3: MBP::BAF-1 F46E (natural protein, C. elegans, UniProt Q03565 1-89, looked up)
chain: MSTSVKHREFVGEPMGDKEVTCIAGIGPTYGTKLTDAGFDKAYVLEGQYLLLKKDEDLFIEWLKETAGVTANHAKTAFNCLNEWADQFM
In the case of B3, the Kd in series [2] was found to be 623 nM; in series [3] it was 5.6 nM.

B4: MBP::BAF-1 K6A (natural protein, C. elegans, UniProt Q03565 1-89, looked up)
chain: MSTSVAHREFVGEPMGDKEVTCIAGIGPTYGTKLTDAGFDKAYVLFGQYLLLKKDEDLFIEWLKETAGVTANHAKTAFNCLNEWADQFM
In the case of B4, the figures for the Kd in series [2] and in series [3] were 198 nM and 31 nM, respectively.

B5: MBP::BAF-1 S4E (natural protein, C. elegans, UniProt Q03565 1-89, looked up)
chain: MSTEVKHREFVGEPMGDKEVTCIAGIGPTYGTKLTDAGFDKAYVLFGQYLLLKKDEDLFIEWLKETAGVTANHAKTAFNCLNEWADQFM
Regarding B5, the Kd in series [2] is 32100 nM; in series [3], around 57 nM.

B6: MBP::BAF-1 S4A (natural protein, C. elegans, UniProt Q03565 1-89, looked up)
chain: MSTAVKHREFVGEPMGDKEVTCIAGIGPTYGTKLTDAGFDKAYVLFGQYLLLKKDEDLFIEWLKETAGVTANHAKTAFNCLNEWADQFM
For the molecule B6, the results for the Kd in series [2] and in series [3] were 281 nM and 20 nM, respectively.
In the case of B7, the Kd in series [4] was 4 to 5 nM; in “SPR [5]”, 14 nM.

B8: Ce-lamin tail domain (residues 388–566), His-tagged (domain or fragment, C. elegans, UniProt Q21443 388-566, looked up)
chain: NLTQEAPQNTSVHHVSFSSGGASAQRGVKRRRVVDVNGEDQDIDYLNRRSKLNKETVGPVGIDEVDEEGKWVRVANNSEEEQSIGGYKLVVKAGNKEASFQFSSRMKLAPHASATVWSADAGAVHHPPEVYVMKKQQWPIGDNPSARLEDSEGDTVSSITVEFSESSDPSDPADRCSIM
In turn, B8 gave a Kd in series [2] of 0.56 nM.
